Among the data in the RNAGym collection of RNA variant scans (doi:10.7554/elife.90254) are self-cleavage values, retold here.

B1: LINE1-full (parent)
chain: UACGUAGGUGGUUUUCCCCUGAUAGUGCUAAGGGGGCCUGGAAGUUUGGACUGGGCAGAGCUCAACACAGCGUGGCAAAGUGGCUGUGGCUAGACUGCCUCUCUGGAUUCCUCGUCACUCAGCAGGGCAUCUCUGAGAGAAAUGCC

The variants in this data set derive from B1. The data set can be described thus: self-cleavage, relative activity (ratio to wild type); higher = more cleavage; in vitro, sequencing; the parent is a self-cleaving ribozyme.
In the case of UACGUAGGUGGUUUUCCCCUGAUAGUGCUAAGGGGGCCUGGAAGUUUGGACUGGGCAGAGCUCAACACAGCGUGGCAAAGUGGCUGUGGCUAGACAGCCUCUCUGGAUUCCUCGUCACUCAGCGGGGCAUCUCUGAGAGAAAUGCC, the self-cleavage came out at 0.06. UACGUAGGUGGUUUUCCCCUGAUAGUGCUAAGGGGGCCUGGAAGUUUGGACUGGGCAGAGCUCAACACAGCGUGGCAAAGUGGCUGUGGCUAGAUUGCCUCUCUGGAUUCCUCGUCACUCAGCAGGGCAUCUCUGAGUGAAAUGCC: the self-cleavage was found to be 0.2. The same measure for UACGUAGGUGGUUUUCCCCUGAUAGUGCUAAGGGGGCCUGGAAGUUUGGACUGGGCAGAGCUCAACACAGCGUGGCAAAGUGGCUGUGGCUAGAUUGCCUCUCUGGAUUCCUCGUCACUCAGCAGGGCGUCUCUGAGAGAAAUGCC: 0.19.

Consider UACGUAGGUGGUUUUCCCCUGAUAGUGCUAAGGGGGCCUGGAAGUUUGGACUGGGCAGAGCUCAACACAGCGUGGCAAAGUGGCUGUGGCUAGAUUGCCUCCCUGGAUUCCUCGUCACUCAGCAGGGCAUCUCUGAGAGAAAUGCC, for which the self-cleavage came out at 0.14. In the case of UACGUAGGUGGUUUUCCCCUGAUAGUGCUAAGGGGGCCUGGAAGUUUGGACUGGGCAGAGCUCAACACAGCGUGGCAAAGUGGCUGUGGCUAGAUUGCCCCUCUGGAUUCCUCGUCACUCAGCAGGGCAUCUCUGAGAGAAAUGCC, the self-cleavage amounted to 0.59. The same measure for UACGUAGGUGGUUUUCCCCUGAUAGUGCUAAGGGGGCCUGGAAGUUUGGACUGGGCAGAGCUCAACACAGCGUGGCAAAGUGGCUGUGGCUAGAUUGCCUCUCUGGAUUCCUCGUCACUCAGCAGGGCACCUCUGAGAGAAAUGCC: 0.21; for UACGUAGGUGGUUUUCCCCUGAUAGUGCUAAGGGGGCCUGGAAGUUUGGACUGGGCAGAGCUCAACACAGCGUGGCAAAGUGGCUGUGGCUAGAGUGCCUCUCCGGAUUCCUCGUCACUCAGCAGGGCAUCUCUGAGAGAAAUGCC: 0.02.

As to UACGUAGGUGGUUUUCCCCUGAUAGUGCUAAGGGGGCCUGGAAGUUUGGACUGGGCAGAGCUCAACACAGCGUGGCAAAGUGGCUGUGGCUAGAUUGCCUCUCUGGAUUCCUCGUCACUCAGCAGGGCAUCUCUAAGAGAAAUGCC, the self-cleavage stood at 0.17. The same measure for UACGUAGGUGGUUUUCCCCUGAUAGUGCUAAGGGGGCCUGGAAGUUUGGACUGGGCAGAGCUCAACACAGCGUGGCAAAGUGGCUGUGGCUAGAUUGCCUCUCUGGAUUCCUCGUCAAUCAGCAGGGCAUCUCUGAGAGAAAUGCC: 0.13. With UACGUAGGUGGUUUUCCCCUGAUAGUGCUAAGGGGGCCUGGAAGUUUGGACUGGGCAGAGCUCAACACAGCGUGGCAAAGUGGCUGUGGCUAGACAGCCUCUCUGGAUUCCUCGUCACUCAGCAGGGCAUCUCUGAGUGAAAUGCC, the self-cleavage stood at 0.1. Next, UACGUAGGUGGUUUUCCCCUGAUAGUGCUAAGGGGGCCUGGAAGUUUGGACUGGGCAGAGCUCAACACAGCGUGGCAAAGUGGCUGUGGCUAGAUUGCCUCUCAGGAUUCCUCGUCACUCAGCAGGGCAUCUCUGAGAGAAAUGCC: 0.1. Next, UACGUAGGUGGUUUUCCCCUGAUAGUGCUAAGGGGGCCUGGAAGUUUGGACUGGGCAGAGCUCAACACAGCGUGGCAAAGUGGCUGUGGCUAGACAGCCUCUCUGGAUUCCUCGUCACUCUGCAGGGCAUCUCUGAGAGAAAUGCC: 0.05; UACGUAGGUGGUUUUCCCCUGAUAGUGCUAAGGGGGCCUGGAAGUUUGGACUGGGCAGAGCUCAACACAGCGUGGCAAAGUGGCUGUGGCUAGAUUGCCUCUCUGGACUCCUCGUCACUCAGCAGGGCAUCUCUGAGAGAAAUGCC: 0.42. UACGUAGGUGGUUUUCCCCUGAUAGUGCUAAGGGGGCCUGGAAGUUUGGACUGGGCAGAGCUCAACACAGCGUGGCAAAGUGGCUGUGGCUAGAUUGCCUCUCUGGAUUCCUCGUCACUCAGCAGGGCAUCCCUGAGAGAAAUGCC: the self-cleavage was 0.21. Regarding UACGUAGGUGGUUUUCCCCUGAUAGUGCUAAGGGGGCCUGGAAGUUUGGACUGGGCAGAGCUCAACACAGCGUGGCAAAGUGGCUGUGGCUAGAUUGCCUCUCUGGAUUCCUCGUCACUCGGCAGGGCAUCUCUGAGAGAAAUGCC, the self-cleavage was 0.33. The same measure for UACGUAGGUGGUUUUCCCCUGAUAGUGCUAAGGGGGCCUGGAAGUUUGGACUGGGCAGAGCUCAACACAGCGUGGCAAAGUGGCUGUGGCUAGAUUGCCUCUCUGGAUUCCUCGCCACUCAGCAGGGCAUCUCUGAGAGAAAUGCC: 0.54; for UACGUAGGUGGUUUUCCCCUGAUAGUGCUAAGGGGGCCUGGAAGUUUGGACUGGGCAGAGCUCAACACAGCGUGGCAAAGUGGCUGUGGCUAGAUUGCCUCUCUGGGUUCCUCGUCACUCAGCAGGGCAUCUCUGAGAGAAAUGCC: 0.21. As to UACGUAGGUGGUUUUCCCCUGAUAGUGCUAAGGGGGCCUGGAAGUUUGGACUGGGCAGAGCUCAACACAGCGUGGCAAAGUGGCUGUGGCUAGAUUGCCUCUCUGGAUUCCUCGUCGCUCAGCAGGGCAUCUCUGAGAGAAAUGCC, the self-cleavage was found to be 0.14.

For UACGUAGGUGGUUUUCCCCUGAUAGUGCUAAGGGGGCCUGGAAGUUUGGACUGGGCAGAGCUCAACACAGCGUGGCAAAGUGGCUGUGGCUAGACAGCCUCUCUGGAUUCCUCGUCACUCAGCAGGGCAUCUCUGUGAGAAAUGCC, the self-cleavage turned out to be 0.09. For UACGUAGGUGGUUUUCCCCUGAUAGUGCUAAGGGGGCCUGGAAGUUUGGACUGGGCAGAGCUCAACACAGCGUGGCAAAGUGGCUGUGGCUAGACAGCCUCUCUGGAUUCCUCGUCACUCAGCAGGGCAUCUCUGGGAGAAAUGCC, the self-cleavage was 0.09.
